{
  "source": "patent US7153676B1",
  "about": "“Transacylases of the paclitaxel biosynthetic pathway” (priority 1999, dated 2006)",
  "proteins": {"B1": {"name": "10-deacetylbaccatin III-10-O-acetyl transferase (TAX6) (Taxus cuspidata) (protein)", "chain": "MAGSTEFVVRSLERVMVAPSQPSPKAFLQLSTLDNLPGVRENIFNTLLVYNASDRVSVDPAKVIRQALSKVLVYYSPFAGRLRKKENGDLEVECTGEGALFVEAMADTDLSVLGDLDDYSPSLEQLLFCLPPDTDIEDIHPLVVQVTRFTCGGFVVGVSFCHGICDGLGAGQFLIAMGEMARGEIKPSSEPIWKRELLKPEDPLYRFQYYHFQLICPPSTFGKIVQGSLVITSETINCIKQCLREESKEFCSAFEVVSALAWIARTRALQIPHSENVKLIFAMDMRKLFNPPLSKGYYGNFVGTVCAMDNVKDLLSGSLLRVVRIIKKAKVSLNEHFTSTIVTPRSGSDESINYENIVGFGDRRRLGFDEVDFGWGHADNVSLVQHGLKDVSVVQSYFLFIRPPKNNPDGIKILSFMPPSIVKSFKFEMETMTNKYVTKP"}},
  "substrate": "CC(=O)SCCNC(=O)CCNC(=O)[C@H](O)C(C)(C)COP(=O)(O)OP(=O)(O)OC[C@H]1O[C@@H](n2cnc3c(N)ncnc32)[C@H](O)[C@@H]1OP(=O)(O)O",
  "assay": "purified protein, by the assay type",
  "details": "other: Lineweaver-Burk analysis, partially purified recombinant TAX6",
  "data": [
    {"protein": "B1", "values": [
      {"measurement": "Km", "value": 8, "unit": "µM"}
    ]}
  ]
}
